Consider 16 sequences from the DeepSol protein solubility set.

The series in a line: soluble on expression in E. coli; label from the status in PepcDB or PDB records.
In the case of “MAHHHHHHMQAAAPGQTLSSALRFWADVSYGDAPPAALIDYPPLGFEEDSSRLTVGALQASRDAAAADSRRQLGLKTQRASEDVDGSAHPALLLGVKEESSTLAVTREELEGEEGPAWLQPPLLLQLDDGLEDRQFAAATTTGRTAPVPHLRYDGAGLLAVMHVHSSGIAYVGYPRASDTVSSAEPTDGLVRLPDNVPPADPLAVAAPTPAPICSLPMSSSTGFVRGLLGLS”, the “soluble on expression in E. coli” value is on record as “not soluble”.

As to “MGSDKIHHHHHHMKSAPDWIAHPDTPYLLIDEAKLKSNINYLKQRVESLGSHLRPHLKTLRTLEAAGYLLDSKSAPATVSTLAEAEAYAKAGYTDLLYAVGIAPAKLKRVAALRQQGINLHILLDNITQAQAVVDYAAEFGQDFSVFIEIDSDDHRGGIKPSDSKLLTIAKTLGEHFTGLMTHAGGSYACNTEQGLKNFAKQECDAVRIARNNLETAGIHCAITSVGSTPTAHFGEDFSDISEVRAGVYTTFDLVMKNIGVCDFSHIAMSVVTTVIGHNKEKNWLLTDSGWMALSRDSGTAGQNRDFGYGQVCKIDGSVLDGLCVNSTSQEHGVIELSDAYQLEDFPVGHQLRIMPNHACATAAMHPVYHVLMSDGSHNTWQRITGW”, the “soluble on expression in E. coli” value is given as “not soluble”.

As for “MRIVVTRPQRSGERTAAKLEALGHAPVLLPLFHPIHHGERATSALSDPAGAIAVTSAEALRALATCEEQLAPYLSKPLFAVGGATAEAAQETGFEQIFTASGDALGLTVLVKQHRAFLTEEEPLLYLAGRPRGSVFEEGLAAAGIPFRTVDCYEMLPSDISENTLETTLLDTTADMVLLYSSEAARAFFHHVSADKYVTALAATKFICISRNVLFLVPEIFRANAKAAEEPSEAAMFELLHHNSGTLEHHHHHH”, the “soluble on expression in E. coli” value is recorded as “soluble”.

As to “MNAKEILVHSLRLLENGDARGWCDLFHPEGVLEFPYAPPGWKTRFEGRETIWAHMRLFPEHLTVRFTDVQFYETADPDLAIGEFHGDGVATVSGGKLAQDYISVLRTRDGQILLYRDFWNPLRHLEALGGVEAAAKIVQGA”, the “soluble on expression in E. coli” value is “soluble”.

With “MGSDKIHHHHHHMTPSMVEDVRIEQLWIPDSLDGPDSADFLAAVEVGRKVRMQTWGSDDLAYTPLEKLLEFADPYERQVILVARVEGNIVGTVDIALPLADNLDLAEFTLDILPEFQRQGVGRQLLEAAEQFARAEGRSMILIDTNHPGVSLSSSADDQLVPGSGLGFVPMGSREVEFARKTGYTLQHIEQFSSCLLPLDTKLVAELSDEAEQANAGRYRLHHWTDRCPDIWLEGVAALENQAGGDTEPSTRTDEQMVFDGAMIRKAEDATIAQGRRTVVTAVEHIATGTLVGLTTISVLSQRQDVVFQDDTVVMQEHRGNKLGLLIKVANMVRLTEQFPDARVIYTWNAPENRYLLKVNQQLGFNTAGVTGIWQKDLPDLGPSSS”, the “soluble on expression in E. coli” value was “not soluble”.

On to “MTKHKERVMYYGKGDVFAYRTYLKPLTGVRTIPESPFSGRDHILFGVNVKISVGGTKLLTSFTKGDNSLVVATDSMKNFIQKHLASYTGTTIEGFLEYVATSFLKKYSHIEKISLIGEEIPFETTFAVKNGNRAASELVFKKSRNEYATAYLNMVRNEDNTLNITEQQSGLAGLQLIKVSGNSFVGFIRDEYTTLPEDSNRPLFVYLNIKWKYKNTEDSFGTNPENYVAAEQIRDIATSVFHETETLSIQHLIYLIGRRILERFPQLQEVYFESQNHTWDKIVEEIPESEGKVYTEPRPPYGFQCFTVTQEDLPHENIL”, for which the “soluble on expression in E. coli” value is reported as “soluble”.

Consider “MGSDKIHHHHHHMQVTEQMKLDLARDGAFVARGLFSPEGLKRMREAFDYGIEHPSPQHGYIFKGTPDEHFNDYGNIANRDVHIATIKALVLDEFVASLWDSQHVWFKGEEIFIKKGGKAGRSPWHQDNSYTPVSGPQMLNIWTCFERIPRKNALEVVRGSHLGIQYNGNSYTDPGKPTKPLWLNTDWPDLPDIEAERAKDPNSWDVLSWDLELGDALVFHSGALHGGAPVSADCPDRHTLVYRFFGDKLFYRPLPTGGCNYPYDISALNDPSLMPGEPFRAAWCTQLR”, for which the “soluble on expression in E. coli” value is “not soluble”.

In the case of “MLTNCASKTLAAVRANIRAIATSSARASDNLFVHRDTPEDNPNIPFEFTAENKKRVEAILSIYPEGHKRGAMIPLLDLAQRQYGWLPISAMHKVAEILQLPNMRVYEVATFYTMFMRKPTGKYHIQVCTTTPCWLRGSDDILETCKKQLGIGVGDTTKDRKFTISEVECLGACVNAPMVAINDDYYEDLTSKDMQDILNDLKADKISPPGPRNGRFASEPKGEPTSLSEEPKGPGFGLQAGL”, the “soluble on expression in E. coli” value is on record as “not soluble”.

As to “MDDVLRRNPLFAALDDEQSAELRASMSEVTLARGDTLFHEGDPGDRLYVVTEGKVKLHRTSPDGRENMLAVVGPSELIGELSLFDPGPRTATGTALTEVKLLALGHGDLQPWLNVRPEVATALLRAVARRLRKTNDAMSDLVFSD”, the “soluble on expression in E. coli” value is recorded as “soluble”.

Regarding “MTMTLNELLATNPDGTLEDIAGKYNTSLFAVVEALPTAQCTLATGDRFDQVWDTIATWGEVTLISHTADAILEFKSELPTGTHRHGYFNLRGKNGLSGHIRATSCQHIAFIERKFMGMDTASVVFFNANGAAMFKIFLGRDSHRQLLSAQVDAFRALASELQPEQVLEHHHHHH”, the “soluble on expression in E. coli” value was “soluble”.

With “GSHMTNWLRVYYYEDTISTIKDIAVEEDLSSTPLLKDLLELTRREFQREDIALNYRDAEGDLVRLLSDEDVALMVRQARGLPSQKRLFPWKLHITQKDNYRVYNTMP”, the “soluble on expression in E. coli” value is “soluble”.

For “MSLYYEQPIYIATQENWDLELNPQIRTNRGFGLYSTLRFLDSPYSTGELNFGAFRENSSYFHDENLKNQTHYGIELKYSRDDLIKSLLSDNFQEGLWIDATYLNDVDYLNLGSRDYRDLNSLVTSKINYFLADENNFYGAYARYYIDTSKLSNNTTLQEYPSFQYHRFLNNLFDERLRYSFDASFHNFYRPAGSYANELNLDLPISYHNAFFGDFLHFTFTERFYASFVNYSNDPERNHEHYFRNTHDFNLYTDLSKAYENFFHTLNLGVNYILPGAKSGKITQDYLEEYDKENEHTSLYAVQYFYNNEGQKKLKHRISLDYLNKQNEFYELENLLTYYFNENINLNSEVLYSYEQSRFTNVISQIEVNTNSKFNWMFSHAYQNDEYGKYSFIGTRANYIATPNYNLFGGIWFDTQRAHANMWELGYTYQRKCWNYSLMYRERIDPQLTSGGITAKNQSGVYFIFNFYPLGGVKYDFSLAESENKIEGHHHHHH”, the “soluble on expression in E. coli” value is “not soluble”.

For the sequence “MSLSQASSTDTPFVIAGRTYGSRLLVGTGKYKDLDETRRAIEASGAEIVTVAVRRTNIGQNPDEPNLLDVIPPDRYTILPNTAGCYDAVEAVRTCRLARELLDGHNLVKLEVLADQKTLFPNVVETLKAAEQLVKDGFDVMVYTSDDPIIARQLAEIGCIAVMPLAGLIGSGLGICNPYNLRIILEEAKVPVLVDAGVGTASDAAIAMELGCEAVLMNTAIAHAKDPVMMAEAMKHAIVAGRLAYLAGRMPRKLYASASSPLDGLIDEGGSHHHHHH”, the “soluble on expression in E. coli” value is “soluble”.

Turning to “MNGGTFTTGKEKERAGIYFNFKTTAQERVSLSERGTVALPVASSWGEAKTFVSISSVEDLNKKVGLSIDDPSLLLLREAKKNAKTVLMYRLTEGVRASADIAEGVKATAVYGGTKGNDIIIRINQNVLDANSFDVTTYMDESEVDKQTVKKAEELTANGYVTFTGTGDLSSTIPLTGSEGDTAAETLNASAGIRLSGGTDKAPVNSDYTDFLAAAETESFDVIALPVAEGDQLKATFAAFIKRLRDGQGQKVQGVTANYAGDYEGIINVTEGVLLEDGTEVTPDKATAWVAGASAGATFNQSLTFVEYEGAVDVLHRLDHDTIVERLGKGEFLFTFDARDKSVSVEKDINSLVTFTAEKNKKFAKNKIVRVLDAVNNDLTRELKALIKSRKGSGSDIPASEDGLQYVKTMITQYMTTLQDAGGITGFDSDEDITISMNEDRDGFLIDLLYSLSTQQKNSTLMWRLEHHHHHH”, the “soluble on expression in E. coli” value is “soluble”.

For the sequence “MAEKSCSLTEFVGTAIGDTLGLVIANVDTALLDAMKLEKRYRSIGILGARTGAGPHIMAADEAVKATNTEVVSIELPRDTKGGAGHGSLIILGGNDVSDVKRGIEVALKELDRTFGDVYGNEAGHIELQYTARASYALEKAFGAPIGRACGIIVGAPASVGVLMADTALKSANVEVVAYSSPAHGTSFSNEAILVISGDSGAVRQAVTSAREIGKTVLATLGSEPKNDRPSYI”, the “soluble on expression in E. coli” value is on record as “not soluble”.

Consider “GSSIFDIYVVTADYLPLGAEQDAITLREGQYVEVLDAAHPLRWLVRTKPTKSSPSRQGWVSPAYLDRRLKL”, for which the “soluble on expression in E. coli” value was “soluble”.
